Experimental data: article doi:10.1101/2025.10.09.681077

Columns and labels:
Assay in all cases: partitioning into condensates
[1] = molecular target: PLPPR3 intracellular domain (ICD), purification construct HA-M1-PLPPR3 ICD-His (UniProt Q7TPB0)
PLPPR3 ICDΔ399 = PLPPR3 ICDΔ399 (UniProt Q7TPB0)
PLPPR3 ICDΔ345 = PLPPR3 ICDΔ345 (UniProt Q7TPB0)
[2] = molecular target: PLPPR3 ICDΔ345/Δ399 (double mutant) (UniProt Q7TPB0)

alpha-actin (from UniProt P68032 1-377) (natural protein)
partition coefficient of G-actin into condensates, k actin (Cin/Cout) [1]: 15.4
partition coefficient of G-actin into condensates, k actin (Cin/Cout) (PLPPR3 ICDΔ399): 11.8
partition coefficient of G-actin into condensates, k actin (Cin/Cout) (PLPPR3 ICDΔ345): 15.2
partition coefficient of G-actin into condensates, k actin (Cin/Cout) [2]: 11.8
